Our source for the Km, kcat and kcat/Km values is article PMC8805389, “High-level production of the agmatine in engineered Corynebacterium crenatum with the inhibition-releasing arginine decarboxylase” (Microbial Cell Factories, 2022).

Substrate in the data set “purified protein”: N=C(N)NCCC[C@H](N)C(=O)O
As to the kind of experiment: purified protein. The conditions noted are these: 50 mM Tris-HCl pH 8.0, 2.5 mM MgSO4, 0.6 mM PLP, 37 °C.

Substrate in data set [1]: N=C(N)NCCC[C@H](N)C(=O)O
The data set is described as follows: arginine decarboxylase activity, agmatine by HPLC. It is filed as biochemical, Escherichia coli. As to conditions: 50 mM Tris-HCl pH 8.0, 2.5 mM MgSO4, 0.6 mM PLP, 37 °C. From the text: arginine decarboxylase activity, agmatine by HPLC on SpeA

Residue numbers refer to the chain shown, from its start. Names and notes keep the numbering of the source.

B1: SpeA (Escherichia coli K-12) (protein)
chain: MSDDMSMGLPSSAGEHGVLRSMQEVAMSSQEASKMLRTYNIAWWGNNYYDVNELGHISVCPDPDVPEARVDLAQLVKTREAQGQRLPALFCFPQILQHRLRSINAAFKRARESYGYNGDYFLVYPIKVNQHRRVIESLIHSGEPLGLEAGSKAELMAVLAHAGMTRSVIVCNGYKDREYIRLALIGEKMGHKVYLVIEKMSEIAIVLDEAERLNVVPRLGVRARLASQGSGKWQSSGGEKSKFGLAATQVLQLVETLREAGRLDSLQLLHFHLGSQMANIRDIATGVRESARFYVELHKLGVNIQCFDVGGGLGVDYEGTRSQSDCSVNYGLNEYANNIIWAIGDACEENGLPHPTVITESGRAVTAHHTVLVSNIIGVERNEYTVPTAPAEDAPRALQSMWETWQEMHEPGTRRSLREWLHDSQMDLHDIHIGYSSGIFSLQERAWAEQLYLSMCHEVQKQLDPQNRAHRPIIDELQERMADKMYVNFSLFQSMPDAWGIDQLFPVLPLEGLDQVPERRAVLLDITCDSDGAIDHYIDGDGIATTMPMPEYDPENPPMLGFFMVGAYQEILGNMHNLFGDTEAVDVFVFPDGSVEVELSDEGDTVADMLQYVQLDPKTLLTQFRDQVKKTDLDAELQQQFLEEFEAGLYGYTYLEDE
For the protein B1, in “purified protein”, the Km stood at 602 ± 92 µM, the kcat was 1.79 ± 0.135 s⁻¹ and the kcat/Km came to 2970 M⁻¹ s⁻¹.

B2: SpeA (Escherichia coli K-12; I534S) (protein)
chain: B1 chain with I534S
notes: C-terminal His-tag; expressed in E. coli BL21(DE3) from pXMJ19; HisTrap purified; tetramer (two dimers)
As to B2, in data set [1], the Km was found to be 691 ± 69 µM, the kcat came to 2.12 ± 0.206 s⁻¹ and the kcat/Km was 3070 M⁻¹ s⁻¹.

B3: SpeA (Escherichia coli K-12; I534D) (protein)
chain: B1 chain with I534D
notes: as for B2
Take B3: in data set [1], the Km was determined as 623 ± 75 µM, the kcat amounted to 2.64 ± 0.328 s⁻¹ and the kcat/Km was found to be 4240 M⁻¹ s⁻¹.

In general, Km refers to the substrate concentration at which the rate is half of its maximum. A word on the kcat: it is the number of substrate molecules converted per active site and unit of time at saturation. Broadly, the kcat/Km is the turnover number divided by the Michaelis constant.
